Reference: article doi:10.1101/2024.08.05.606605v1

Tested on: O=[N+]([O-])c1ccc(O[C@@H]2O[C@H](CO)[C@@H](O)[C@H](O)[C@H]2O)cc1
Experiment: purified protein
Details: 50 mM sodium acetate pH 5.5, 55 °C

Work on “WT-AtGH1 (Acetivibrio thermocellus ATCC 27405)” yielded a Km of 2420 ± 170 µM and a kcat of 10.08 s⁻¹.
With “WT-AtGH1 (Acetivibrio thermocellus ATCC 27405; G168W)” the Km was 2230 ± 130 µM and the kcat was 9.1175 s⁻¹.
“WT-AtGH1 (Acetivibrio thermocellus ATCC 27405; G168W/S242L)” gave a Km of 1320 ± 110 µM and a kcat of 12.38 s⁻¹.
“WT-AtGH1 (Acetivibrio thermocellus ATCC 27405; S242L)” was tested, and the Km was 1790 ± 110 µM and the kcat was 7.0875 s⁻¹.
“WT-AtGH1 (Acetivibrio thermocellus ATCC 27405; S242W)” was tested, and the Km was 2100 ± 100 µM and the kcat was 27.115 s⁻¹.
